# Results from the RNAGym collection of RNA variant scans (doi:10.1073/pnas.2313332121).
# B1: TPR t1 (parent)
# chain: GACCAAUCUGCCCUCAGAGCUCGAGAACAUCUUCGGAUGCAGAGGAGGCAGGCUUCGGUGGCGCGAUAGCGCCAACGUCCUCAACCUCCAAUGCAUCCCACCACAUGAUGAUGCCUGAAGAGCCUUGGUUUUUUG
# Variants of: B1
# Assay: polymerase ribozyme fitness, log enrichment relative to wild type (log ratio); higher = more active; in vitro selection for triplet polymerase activity
# Summary of the method: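 In triplicate, a single round of in vitro selection was run on each mutant library, PCR-built and transcribed, covering one subunit of a heterodimeric triplet polymerase ribozyme. Frozen incubation at −7 °C followed annealing with a biotinylated primer, partner subunit and triplets, and extended constructs were then gel-excised, streptavidin-captured and taken through RT-PCR. Fitness is the logarithm of genotype enrichment over wild-type enrichment, from inverse-variance-weighted replicate averages of Illumina-sequenced inputs and outputs. […] only genotypes with ≥10 input reads and ≥1 read per output were kept.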
row,Variant,polymerase ribozyme fitness (log ratio)
1,GACCAAUCUGCCCUCAGAGCUCGAGAACAUCUUCGGAUGUAGAGGAGGCAGGCUUAGGUGGCGCGAUAGCGCCAACGUCCUCAACCUCCAGUGCAUCCCACCACAUGAUGAUGCCUGAAGAGCCUUGGUUUUUUG [C40U C56A A91G],-2.75
2,GACAAAUCUGCCCUCAGAGCUCGAGAACAUCUUCGGAUGCAGAGGAGGCAGGCUUCGGUGGCGCGAUAGCACCAACGUCCUCAACCUCCAAUGCAUCCCUCCACAUGAUGAUGCCUGAAGAGUCUUGGUUUUUUG [C4A G71A A100U C123U],-2.04
3,GACCAAUCUGCCCUCAGAACUCGAGAACAUCUUCGGAUGCAAAGGAGGCAGGCUUCGGUGGCGCGAUAGCGCCAACGUCCUCAACCUCCAAUGCAUCCCACCACAUGAUGAUGCCUGAAGAGCCUUGGUUUUUUG [G19A G42A],-3.26
4,GACCAAUCUGCCCUCAGAGCUCGAGAACAUCUUCGGAUGCAGAGGAGGCAGGCUUCGGUGGCGCGAUAACGCCAACGUCCUCAACCUCCAAUGCAUCCCACCACAUGAUGAUGCCUGAAGAGCCUUGGUGUUUUG [G69A U130G],-2.69
5,GACCAAUCUGCCCUCAGAGCUCGAGAACAUCUUCGGAUGCAGAGGAGGCAGGCUUCGGUGGCGCGAUAGCGCCAACGUCCUCAACCUCCAAUGCAUCCCACCACAUGAUGAUGCCUUAAGAGCCUGGGUUUUUUG [G117U U126G],-5.92
6,GACCAAUCUGCCCUCAGAGUUCGAGAACAUCUUCGGAUGCAGUGGAGGCAGGGUUCGGUGGCGCGAUAGCGCCAACGUCCUCAACCUCCAAUGCAUCCCACCACAUGAUGAUGCCUGAAGAGCCUUGGUUUUUUG [C20U A43U C53G],-2.28
7,GACCAAUCUGCCGUCAGAGCUCGAGAACAUCUUCGGAUGCAGAGGAGGCAGGCUUCGGUGGCGUGAUAGCGCCAACGUCCUCUACCUCCAAUGCCUCCCACCACAUGAUAAUGCCUGAAUAGCCUUGGUUUUUUG [C13G C64U A83U A95C G110A G120U],-3.89
8,GACCAAUCUGCCCUCAGAGCUCGAGAACAUCUUCGGAUGCAGAGGAGGCAGGCUUCGGUGGCGCGAUAGAGCCAGCGUCCUCAACCUCCAAUGCAUCCCACCACAUGAUGAUGCCUGAAGAGCCUUGGUUUUUUG [C70A A75G],-2.89
9,GACCAAUCUGCCCUCAGAGCUCGAGAACAGCUUCGGAUGCAGAGGAGGCAGGCUUCGGUGGCGCGAUAUCGCCAACGGCCUCAACCUCCAAUGCAUCCCACCACAUGAUGAUGCCUGAAGAGCCUUGGUUUUUUG [U30G G69U U78G],-3.84
10,GACCAAUCUGCCCUCAGAGCUCGAGAACAUCUUCGGAUGCAGAUGAGGCAGGCCUCGGUGGCGCGAUAGCGCCAACGUCCUCAACCUCCAAUGCAUCCCACCACAUGAUGAUCCCUGAAGAGCCUUGGUUUUUUG [G44U U54C G113C],-3.08
11,GACCAAUCUGCCCUCAGAGCUCGAGAAAAUCUUCGGAUGCAGAGGAGGCAGGCUUCGGUUGCGCGAUAGCGCCUACGUCCUCCACCUCCAAUGCAUCCCACCACAUGAUGAUUCCUGAAGAGCCUUGGUUUUUUG [C28A G60U A74U A83C G113U],-6.48
12,GACCAAUCUGCCCUCAGAGCUCGAGAACAUCUUCGGAUGCAGAGGAGGCAGGGUUCGGUGGCGCGAUAGCACCAACGUCCUCAACCUCCAAUGCAUCCCACCACAUGAUGAUGCCUGAAGAGCCUUGGUUUUUUG [C53G G71A],-1.22
13,GACCAAUCUGCCCUCAGAGCUCGAGAACAUCUUCAGAUGCAGAGGAGGCAGGCUUCGGUGGCGCGAUAGCGCCAACGUCCUCAACCUCCAAUGCAUCCCACCACAUGAUGAUGCCUGAAGAGCCUUGGUGUUUUG [G35A U130G],-5.13
14,GACCAAUCUGUCCUCAGAGCUCGAGAACAUCUUCGGAUGGAGAGGAGGCAGGCUUCGGUGGCGCGAUAGCGCCAACGUCCUUAACCUCCAAUGCAUCCCUCCACAUGAUGAUGCCUGAAGAGCCUUGGUUUUUUG [C11U C40G C82U A100U],-4.42
15,GACCAAUCUGCCCUCAGAGCUCGAGAUCAUCUUCGGAUGCAGAGGAGGCAGGCUUCGGUGGCGCGAUAGCGCCAACGUCCUCAACCGCCAAUGCAUCCCACCACAUGAUGAUGCCUGAAGAACCUUGGUUUUUUG [A27U U87G G122A],-3.02
16,GACCAAUCUGCCCUCAGAGCUCGAGAACAUCUUCGAAUGCAGAGGACGCAGGCUUCGGUGGCGCGAUAGCGCCAACGUCCUCAACCUCCAAUGCAUCCCACCACAUGAUGAUGCCUGAAGAGCUUUGGUUUUUUG [G36A G47C C124U],-0.979
17,GACCAAUCUGCCCUCAGAGCUCGAGAACAUCUUCGGAUGCAGAGGAGGCACGCUUCGGUAGCGCGAUAGCGCCAACGUCCUCAACCUCCAAUGCAUCCCACCACAUGAUGAUGCCUGAAGAGCCUUGGUUUUUUG [G51C G60A],-3.46
18,GACCAAUCUGCCCUCAGAGCUCGAGAACAUCUUCGGAUGCAGAGGAGGCAGGCUUAGGUGGCGCGAUAGCGCCAACGUCCUCAACCUCCAAUGCAUCCCACCACAUGAUGAUGACUGAAGAGCCUUGGUUUUUUA [C56A C114A G135A],-2.55
19,GACCAAUCUGCCCUCAGAGCUCGAGAAGAUCUUCGGAUGCAGAUGAGGCAGGCUUCGGUGGCGCGAUAGCGCCAACGUCCUCAACCUCCAAUGCAUCCCACCACAUGAUGCUGCCUCAAGAGCCUUGGUUUUUUG [C28G G44U A111C G117C],-6.59
20,GACCAAUCUGCCCUCAGAGCUCGAGAACAUUUUCGGAUGCAGAGGAGGCAGGCUUCGGUAGCGCGAUAGCGCCAACGUCCUCAACCUCCAAUGCAUCCCACCACAUAAUGAUGCCUGAAGAGCCUUGGUUUUUUG [C31U G60A G107A],-1.03
21,GACCAAUCUACCCUCAGAGCUCGAGAACAUCUUCGGAUGCAGAGGAGGCAGGCUUCGGUGGCGCGAUAGCGCCAACGUCCUCAACUUCCAAUGCAUCCCACCACAUGAUGAAGCCUGAAGAGCCUUGGUUUUUUG [G10A C86U U112A],1.32

row,Variant,polymerase ribozyme fitness (log ratio)
1,GACCAAUCUGCCCUCAGAGCUCGAGAACAUCUUCGGAUGCAGAGGAGGCAGGCUUCGGUGGCGCGAUAGCGCCUACGUCGUCAACCUCCAAUGCAUCCCACCACAUGAUGAAGCCUGAAGAGCCUUGGUUUUUUG [A74U C80G U112A],-5.78
2,GACCAAUAUGCCCUCAGAGCUCGAGAACAUCUUCGGAUGCAGAAGAGGCAGGCUUCGGUGGCGCGAUAGCGCCAACGUCCUCAACCUCCAAUGCAUCCCACCACGUGAUGAUGCCUGAAGAGCCUUGGUUUUUUG [C8A G44A A105G],-3.51
3,GACCAAUCUGCCCUCAGAGCUCGAGAACAUCUUCGGAUGCAGAGGAGGCACGCUUCGGUGGCGCGAUAGCGCCAACGUCCUCAACCUCCAAUGCAUCCCACCACAUGAUGACGCCUGAAGAGCCUUGGUUUUUUG [G51C U112C],-1.34
4,GACCAAUCUGCCCUCAGAGCUCGAGAACAUCUUCGGAUGUAGAGGAGGCAGGCUUCGGUGGCGCGAUACCGCCAACGUCCUCAACCUCCAAUGCAUCCCACCACAUGAUGAUGCCUGAAGAGCCUUGGUUUUUUG [C40U G69C],-1.61
5,GACCAAUCUGCCCUCAGCGCUCGAGAACAUCUUCGGAUGCAGAGGAGGCAGGCUUCGGUGGCGCGAUAGCGCCAACGUCCUCAACCCCCAAUGCAUCCCACCACAUGAUGAUGCCUGAAGAGCCUUGGUUUUUUG [A18C U87C],-2.11
6,GACCAUUCUGCCCUCAGAGCUCGAGAACAUCUUCGGAUGCAGAGGAGGCAGGCCUCGGUGGCGCGAUAGCGUCAACGUCCUCAACCUCCAAUGCAUCCCACCACAUGAUGAUGCCUGAAGAGCCUUGGUUUUUUG [A6U U54C C72U],0.695
7,GACCAAUCUGCCCUCAGAGCUCGAGAACAUCUUCGGAUGCAGAGGACGCAGGCUUUGGUGGCGCGAUAGCGCUAACGUCCUCAACCUCCAAUGCAUCCCACCACUUGAUGAUGCCUGAAGAGCCUUGGUUUUUUG [G47C C56U C73U A105U],-4.05
8,GACCAAUCUGCCAUCAGAGCUCGAGAACAUCUUCGGAUGCAGAGGAGGCAGGCUUCGGUGGCGCGAUAGUGCCAACGUCCUCAACCUCCAAUGCAUCCCACCACAUGAUGAUGGCUGAAGAGCCUUGGUUUUUUG [C13A C70U C114G],-6.69
9,GACUAAUCUGCUUUCAGAGCUCGAGAACAUCUUCGGAUGCAGAGGAGGCAGGCUUCGGUGGCGCGAUAGCGCCAACGUCCUCAACCUCCAAUGCAUCCCACCACAUGAUGAUGCCUGAAGAGCGUUGGUUUUUUG [C4U C12U C13U C124G],1.84
10,GACCAAUCUGCCCUCAGAGCUCGAGAACAUCUUCGUAUGCAGAGGAGGCAGGCUUCGGUGGCCCGAUAGCGCCAAGGUCCUCAACCUCCAAUGCAUCCCACCACAUGAUGAUGCCUAAAGAGCCUUGGUUUUUUG [G36U G63C C76G G117A],-5.18
11,GACCAAUCUGCCCUCAGAGCUCGAGAACAUCUUCGGAUGCAGAGGAGGCAGGCUUCGGUGGCGCGAUGGCGCCAACGUCCACAACCUCCAAUGCAUCCCACCACAUGAUGAUGCCUGAAGAGCCUUGGUUUUUUG [A68G U81A],-4.45
12,GACCAAUCUGCCCUCAGAGCCCGAGAACAUCUUCGGAUGCAGAGGAGGCAGGCUUCGGUGGCGCGAUAGCGCCAACGUCCUCAACCUCCAAUGCAUCCCAUCACAUGAUGAUGCCUGAAGAGCCUUGGUUUUUUG [U21C C101U],-0.578
13,GACCAAUCUGCCCUCAGAGCUCGAGGACAUCUUCGGAUGCAGAGGAGGUAGGCUUCGGUGGCGCGAUAGCGCAAACGUCCUCAACCUCCAAUGCAUCCCACCACAUGAUGAUGCCUGAAGAGCCUUGGUUUUUUG [A26G C49U C73A],-2.93
14,GACCAAUCUGCCCUCAGAGCUCGAGAACAUCUUCGGCUGCAGAGGAGGCAGGCUUCGGUGGCGCGAUAGCGCCAACGUCCUCAACCUCCAAUGCAUCCCACCACAUGAUGAUCCCUGAAGAGCCUUGGUUUUUUG [A37C G113C],-2.44
15,GACCAAUCUGCCCUCAGAGCUCGAGAGCAUCUUCGGAUGCAGAGGAGGCAGGCUUCGGUGGCGCGAUAGCGCCAACGUCCUCGACCUCCAAUACAUCCCACCACAUGAUGAUGCCUGAAGAGCCUUGGUUUUUUG [A27G A83G G93A],-3
16,GACCAAUCUGCCCUCAGAGCUCGAGAACAUCUUCGGAUGCAGAGGAGGCAGGCUUCGGUGGCGCGAUAGCGCGAACGUCCUCAACCUCCAAUGCAUCCCACCACAUGAUGAAGCCUGAAGAGCCUUGGUUUUUUG [C73G U112A],-0.766
17,GACCAAUCUGCCCUCAGAGCUCGAGAACAUCUUCGGAUGCAGAGGAGGCAGGCUUCGGAGGCGCGAUAGCACCAACGUCCUCAACCUCCAAUGCAUCCCAUCACAUGAUGAUGCCUGAAGAGCAUUGGUUUUUUG [U59A G71A C101U C124A],1.02
18,GACCAAUCUGCCCUCAGAGCUCGAGAACGUCUUCGGAUGCAGAGGAGGCAGGAUUCGGUGGCGCGAUAGCGCCAACGUCCUCAACCUCCCAUGCAUCCCAUCACAUGAUGAUCCCUGAAGAGCCUUGGUUUUUUG [A29G C53A A90C C101U G113C],-2.81
19,GACCAAUCUGCCCUCAGAGCUCGAGAACAUCUUCGGAUGCAGAGGCGGCAGGCUUCGGUGGCGCGAUAGCGCCAACGUCCUCAACCUCCAAUGCAUCCCACCACAUGAUGAUGCCUGAAAAGCCUAGGUUUUUUG [A46C G120A U126A],-0.908
20,GACCAAUCUGCCCUCAGAGCUCGAGAACAUCUUCGGAUGCAGAGGAGGCAGGCUUCGGUGGCGCGAUAGCGCCAACGUCCUCAACCUCGAAUGCAUCCCACCACAUGAUGAUACCUGAAGAGCCUUUGUUUUUUG [C89G G113A G127U],-4.45
21,GACCAAUCUGCCCUCAGAGCUCGAGAACAUCUUCGGAUGCAGAGGAGGCAGGCUUCGGUGGCGUGAUAGCGCCAACGUCCUCAACCUCCAAUGCAUCCCACCACAUGAUGCUGCAUGAAGAGCCUUGGUUUUUUG [C64U A111C C115A],-4.52
